Consider 7 molecules from US20230358760, “APTAMERS THAT TARGET CXCL9” (RHEINISCHE FRIEDRICH-WILHELMS-UNIVERSITÄt BONN, published 2023).

In data set [1] the target is T1, CXCL9 (MIG) (Homo sapiens) (UniProt Q07325).
T1 sequence: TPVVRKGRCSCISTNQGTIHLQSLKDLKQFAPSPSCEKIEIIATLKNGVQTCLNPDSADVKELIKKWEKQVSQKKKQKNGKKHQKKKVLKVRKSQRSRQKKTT
The experiment in a line: ELONA. To be noted: n=2.

The next data set concerns the target T2, CXCL11 (Homo sapiens) (UniProt O14625).
T2 sequence: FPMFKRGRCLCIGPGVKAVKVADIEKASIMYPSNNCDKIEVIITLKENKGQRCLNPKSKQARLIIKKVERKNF
As to the kind of experiment: ELONA. To be noted: n=2.

Data set [2] concerns the target T3, CXCL9 (MIG) (Homo sapiens, UniProt Q07325 Q07325:23-125).
T3 sequence: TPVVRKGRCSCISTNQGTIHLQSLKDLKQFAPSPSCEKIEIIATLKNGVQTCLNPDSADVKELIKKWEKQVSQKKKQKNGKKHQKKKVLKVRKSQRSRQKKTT
The experiment in a line: ELONA; n=2. To be noted: tags: Origene; immobilised on magnetic beads for flow cytometry; label: 5' biotin or Cy5; G4. The method, then: (§1) 20 μl of 1 μg/ml protein in bicarbonate/carbonate buffer pH 9.6 was coated overnight at 4° C. on 96 well half area plates (Greiner Bio). After washing three times with 100 μL WB1 (PBS+0.05% Tween 20), wells were blocked with 1% BSA in PBS for 2 h at RT with slight agitation. […] Wells were washed once with 100 μL WB2 (138 mM NaCl, 5 mM KCl, 1.5 mM KH₂PO₄, 8.1 mM Na₂HPO₄, 170 mM urea, 7 mM ammonium acetate, 1 mM MgCl₂, 1 mM CaCl₂), pH 6.5).
DNA was diluted to respective concentration in SB1 and 20 μL is transferred onto the wells in duplicates (protein and BSA wells). After incubation of 30 min at RT and slight agitation, the wells were washed two times with 100 μL WB1 and are incubated with 20 μL of streptavidin-horseradish peroxidase (SA-HRP) solution (1:1000 in PBS, GE Healtcare). After 30 min incubation at RT the wells were washed again twice with 100 μL WB1. Finally, the complex was incubated with 1-Step ABTS (ThermoFisher) for 15-40 min at RT, slight agitation. Absorbance at 405 nm was read out with a Tecan Nanoquant plate reader. […]
In parallel, the influence of indole (In) modification and azide without modification (E) on the affinity of aptamer SEQ ID NO: 4 (G123) was determined using ELONA and compared to the affinity of unmodified DNA (DNA). […] In the table, “+” represents successful binding, while “−” means no detection of binding, “n.d.” denotes not determined.
For orientation: A flow cytometer gives signals particle by particle.

The target of the next data set is T4, CXCL11 (Homo sapiens, UniProt O14625 O14625:22-94).
T4 sequence: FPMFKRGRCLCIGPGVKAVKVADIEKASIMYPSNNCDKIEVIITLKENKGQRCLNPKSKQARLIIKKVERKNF
As to the kind of experiment: ELONA; n=2. The following applies: tags: Cell guidance system; label: 5' biotin or Cy5; G4. The method, then:
as §1
(§2) DNA was diluted to respective concentration in SB1 and 20 μL is transferred onto the wells in duplicates (protein and BSA wells). After incubation of 30 min at RT and slight agitation, the wells were washed two times with 100 μL WB1 and are incubated with 20 μL of streptavidin-horseradish peroxidase (SA-HRP) solution (1:1000 in PBS, GE Healtcare). After 30 min incubation at RT the wells were washed again twice with 100 μL WB1. Finally, the complex was incubated with 1-Step ABTS (ThermoFisher) for 15-40 min at RT, slight agitation. Absorbance at 405 nm was read out with a Tecan Nanoquant plate reader. Binding of DNA to BSA background was subtracted from binding of DNA to protein sample.

Data set [3] deals with HSA (human serum albumin) (Homo sapiens, UniProt P02768 P02768:25-609). As to the kind of experiment: ELONA; DNA at 2x KD. The following applies: tags: Sigma-Aldrich; label: 5' biotin or Cy5; G4. The method, then:
as §1, §2
(§3) Binding of aptamers of SEQ ID NO: 4 (G123) and SEQ ID NO: 5 (I29) to different proteins was determined using ELONA. […] The pro-inflammatory chemokines CXCL9, CXCL10, CXCL11, and CXCL1 were used, as well as soluble interleukin-2 receptor (sCD25), C-reactive protein (CRP), C—C motif chemokine ligand 17 (CCL17), C—C motif chemokine ligand 22 (CCL22), C—C motif chemokine ligand 3(CCL3) and human serum albumin (HAS).

In a further data set the target is T5, CCL22 (Homo sapiens, UniProt O00626 O00626:25-93).
T5 sequence: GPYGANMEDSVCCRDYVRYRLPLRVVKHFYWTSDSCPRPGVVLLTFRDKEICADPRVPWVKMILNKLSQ
As to the kind of experiment: ELONA; DNA at 2x KD. To be noted: tags: BioLegend; label: 5' biotin or Cy5; G4. On the procedure: as §1, §2, §3

The target in another data set is T6, CRP (C-reactive protein) (Homo sapiens, UniProt P02741 P02741:19-224).
T6 sequence: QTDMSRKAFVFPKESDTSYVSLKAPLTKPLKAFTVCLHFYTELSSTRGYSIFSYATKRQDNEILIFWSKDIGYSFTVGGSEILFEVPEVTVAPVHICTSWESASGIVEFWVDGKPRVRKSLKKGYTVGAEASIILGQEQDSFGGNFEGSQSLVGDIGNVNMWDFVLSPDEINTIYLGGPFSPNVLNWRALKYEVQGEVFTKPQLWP
The experiment in a line: ELONA; DNA at 2x KD. To be noted: tags: BioRad; chain copies: 5; label: 5' biotin or Cy5; G4. The method, then: as §1, §2, §3

For a further data set, the target named is CCL17 (Homo sapiens, UniProt Q92583 Q92583:24-94). As to the kind of experiment: ELONA; DNA at 2x KD. The following applies: tags: BioLegend; label: 5' biotin or Cy5; G4. On the procedure:
as §1, §2, §3

For data set [4], the target named is sCD25 (soluble interleukin-2 receptor) (Homo sapiens, UniProt P01589 P01589:22-240). As to the kind of experiment: ELONA; DNA at 2x KD. The following applies: tags: Antikorper online; label: 5' biotin or Cy5; G4. The method, then: as §1, §2, §3
Sequence of sCD25 (soluble interleukin-2 receptor) (P01589 22-240, one chain of several): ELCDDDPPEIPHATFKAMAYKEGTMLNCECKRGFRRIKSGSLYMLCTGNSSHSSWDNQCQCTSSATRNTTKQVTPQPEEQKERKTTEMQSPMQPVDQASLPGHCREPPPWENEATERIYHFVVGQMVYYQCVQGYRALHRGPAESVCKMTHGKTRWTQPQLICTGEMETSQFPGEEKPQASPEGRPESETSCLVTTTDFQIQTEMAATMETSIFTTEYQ
The target in another data set is CXCL1 (Homo sapiens, UniProt P09341 P09341:35-107). The experiment in a line: ELONA; DNA at 2x KD. To be noted: tags: Cell guidance system; label: 5' biotin or Cy5; G4. The method, then:
as §1, §2, §3

Another data set has as its target CXCL10 (Homo sapiens, UniProt P02778 P02778:22-98). The experiment in a line: ELONA; DNA at 2x KD. The following applies: tags: Cell guidance system; label: 5' biotin or Cy5; G4. The method, then:
as §1, §2, §3

In another data set the target is CCL3 (Homo sapiens, UniProt P10147 P10147:24-92). As to the kind of experiment: ELONA; DNA at 2x KD. The following applies: tags: Peprotech; label: 5' biotin or Cy5; G4. The method, then:
as §1, §2, §3

In data set [5] the target is T3, CXCL9 (MIG). As to the kind of experiment: flow; scrambled non-binding control. To be noted: tags: Origene; immobilised on magnetic beads for flow cytometry; label: 5' Cy5. The method, then:
The binding of indole-modified aptamer of SEQ ID NO: 5 (I29 In), unmodified aptamer of SEQ ID NO: 6 (G123 DNA), and indole-modified aptamer of SEQ ID NO: 4 (G123 In) to pro-inflammatory chemokine CXCL9 was determined in competition assay. 100 nM Cy-5 labelled DNA was incubated simultaneous with 1 μM unlabelled DNA and thus competed for binding. After incubation the remaining Cy5 labelled DNA on CXCL9-magnetic beads was analysed with flow cytometry as described above. As control, Cy5-labeled DNA without competitor was analysed and was used to normalize data.
Binding of Cy5 labelled scrambled sequence is used as non-binding control. (n=2, mean±SD).

Setting [6] is: indole-clicked EdU at all N (28,44,47,49,50) [28,44,47,49,50 (indole-clicked EdU)].
[7] abbreviates: indole-clicked EdU at all N [31,45,49,53 (indole-clicked EdU)].

As usually defined, the Kd is the equilibrium constant for the complex coming apart.

Sequence of CCL17 (Q92583 24-94, one chain of several): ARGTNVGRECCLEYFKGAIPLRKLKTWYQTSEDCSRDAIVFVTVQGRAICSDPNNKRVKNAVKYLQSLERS
Sequence of CXCL1 (P09341 35-107, one chain of several): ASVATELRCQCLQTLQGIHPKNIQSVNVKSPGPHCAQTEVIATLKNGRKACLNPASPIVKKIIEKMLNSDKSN
Sequence of CCL3 (P10147 24-92, one chain of several): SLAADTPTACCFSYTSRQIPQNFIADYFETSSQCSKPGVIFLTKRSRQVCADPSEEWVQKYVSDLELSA
Sequence of CXCL10 (P02778 22-98, one chain of several): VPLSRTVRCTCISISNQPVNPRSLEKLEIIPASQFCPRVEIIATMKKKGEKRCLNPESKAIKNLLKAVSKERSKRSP
Sequence of HSA (human serum albumin) (P02768 25-609, one chain of several): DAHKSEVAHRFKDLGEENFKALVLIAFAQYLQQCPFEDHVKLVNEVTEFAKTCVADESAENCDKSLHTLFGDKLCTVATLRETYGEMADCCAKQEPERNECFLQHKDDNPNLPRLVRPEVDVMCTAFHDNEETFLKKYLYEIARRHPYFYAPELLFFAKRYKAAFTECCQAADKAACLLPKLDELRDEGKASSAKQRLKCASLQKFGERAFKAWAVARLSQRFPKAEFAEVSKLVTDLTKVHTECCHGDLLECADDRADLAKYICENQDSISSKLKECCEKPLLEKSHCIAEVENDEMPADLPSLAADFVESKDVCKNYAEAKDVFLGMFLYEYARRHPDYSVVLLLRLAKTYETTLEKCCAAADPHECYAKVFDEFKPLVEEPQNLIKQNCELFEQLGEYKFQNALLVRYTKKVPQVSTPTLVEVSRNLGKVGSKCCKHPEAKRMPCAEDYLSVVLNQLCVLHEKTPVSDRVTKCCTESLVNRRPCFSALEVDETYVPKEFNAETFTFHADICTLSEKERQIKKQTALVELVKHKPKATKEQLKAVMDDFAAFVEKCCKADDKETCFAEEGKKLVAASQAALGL

Consider “CACGACGCAAGGGACCACAGGAGAGACTCACGGGCGGGCGACCTACTGTTCAGCCCAGACCGACAGCACGACACCGCAGAGGCA [I29 Phe]”, for which the Kd in data set [1] (phenol-clicked EdU at all N [28,44,47,49,50 (phenol-clicked EdU)]) was determined as 177 nM.

On to “CACGACGCAAGGGACCACAGGAGAGACTCACGGGCGGGCGACCTACTGTTCAGCCCAGACCGACAGCACGACACCGCAGAGGCA [I29 BnFu]”, for which the Kd in [1] (benzofurane-clicked EdU at all N [28,44,47,49,50 (benzofurane-clicked EdU)]) was found to be 17 nM.

For the molecule “CACGACGCAAGGGACCACAGGAGAGACTCACGGGCGGGCGACCTACTGTTCAGCCCAGACCGACAGCACGACACCGCAGAGGCA [I29 In]”, the Kd with CXCL11 (Homo sapiens) (setting [6]) amounted to 17 nM; in data set [1] (setting [6]), 12 nM.

“CACGACGCAAGGGACCACAGGGAGGGAGGGTGGGCAAAGGGCCCTAAGTCCGTAACAAAAACACAGCACGACACCGCAGAGGCA [G123 In]”: the Kd in the data set with CXCL11 (Homo sapiens) (setting [7]) is 73 nM; in data set [1] (setting [7]), 39 nM.

The molecule “CACGACGCAAGGGACCACAGGAGAGACTCACGGGCGGGCGACCTACTGTTCAGCCCAGACCGACAGCACGACACCGCAGAGGCA [I29 Naph]” showed a Kd in data set [1] (naphthalene-clicked EdU at all N [28,44,47,49,50 (naphthalene-clicked EdU)]) of 21 nM.

B1: G123 DNA (ssDNA)
DNA: CACGACGCAAGGGACCACAGGGAGGGAGGGTGGGCAAAGGGCCCTAAGTCCGTAACAAAAACACAGCACGACACCGCAGAGGCA
Turning to B1, the values for the Kd with CXCL9 (MIG) [2] and with CXCL11 were 92 nM and 249 nM, respectively. The binding result (in [3]; with CCL22; with CRP (C-reactive protein); with CCL17; in [4]; with CXCL1) was “no binding” each time. The binding result with CXCL10 and with CCL3 was “no binding” each time.

B2: G123.sc (ssDNA)
DNA: CACGACGCAAGGGACCACAGGAGGAGAGTAGGCGATACACGACGTAGCGCAGATAGGACCAAGCAGCACGACACCGCAGAGGCA
modifications: N = T or EdU [29,36,45,54 (T or EdU)]
In the case of B2, the binding result with CXCL9 (MIG) [5] was “no binding”.
